In paper PMC7497631, “Role of Membrane Tension Sensitive Endocytosis and Rho GTPases in the Uptake of the Alzheimer’s Disease Peptide Aβ(1-42)” (ACS Chemical Neuroscience, 2020):

What was measured:
SH-SY5Y cells [1] = details: cited from earlier work; for internalization in presence of inhibitors of actin polymerization: SH-SY5Y cells
From the text: Rho GTPases are important regulators of CIE (Figure 1).[30],[41] […] Since Cdc42 (and other Rho GTPases) regulate the actin cytoskeleton,[74] this would be consistent with our previously published result that inhibitors of actin polymerization reduced Aβ(1-40) and Aβ(1-42) but not Trf internalization in SH-SY5Y cells.[13] To f ... || We repeated this set of experiments, exploring also the Rho GTPases Rac1 and RhoA. Overexpression of EGFP-tagged Rac1 (DA Q61L, WT, and DN T17N) induced lamellipodia-like morphologies in transfected cells as expected from the literature.[74] […] The latter result is contrasting observations by ... || We report that Aβ(1-42) uptake into SH-SY5Y cells is sensitive to osmotic pressure-induced alterations in membrane tension, which points to the involvement of CLICs or macropinocytosis. Importantly, Aβ(1-42) behaves distinctively different than the CME-cargo Trf, but also dextran, which is an unspecific fluid-phase endocytosis marker.

SH-SY5Y cells [2] = assay: Cellular uptake quantified by flow cytometry during changes in membrane tension; type: cell-based, human; details: for cellular uptake during the recovery phase relative to uptake in isotonic media: 2 μM HF488-labeled Aβ(1-42) or 250 μg/mL AF647-labeled dextran 10 kDa, 10 min in isotonic medium after 10 min hypotonic (75% MQ), serum-free medium + 2% B-27, flow cytometry mean fluorescence, N = 8, n = 3–4; for effect of hypertonic media on uptake: addition of 100 mM NaCl to the culture medium, 2 μM HF488-Aβ(1-42), 250 μg/mL AF647-dextran 10 kDa, 10 min, flow cytometry, N = 4, n = 3–4
From the text: Flow cytometry was used for quantification of cellular uptake.

SH-SY5Y cells [3] = assay: Live cell confocal microscopy of uptake during changes in membrane tension; details: 2 μM HF488-Aβ(1-42); for internalization during hypotonic conditions: 10 min in hypotonic medium (75% MQ water, 25% cell culture medium); for internalization during hypotonic conditions / internalization during recovery (re-exposure to isotonic conditions): 250 μg/mL AF647-dextran 10 kDa or 5 μg/mL AF488-Trf; for internalization during recovery (re-exposure to isotonic conditions): 10 min in isotonic medium after 10 min hypotonic (75% MQ); for internalization under isotonic conditions: 10 min in isotonic medium, 250 μg/mL AF647-dextran 10 kDa
Procedure: SH-SY5Y cells were incubated with Aβ(1-42), Trf, and dextran 10 kDa while exposed to changes in membrane tension and analyzed by confocal microscopy and flow cytometry. For uptake at isotonic conditions, the cells were washed 1× with serum-free medium, incubated with either 2 μM HF488-labeled Aβ(1-42), 5 μg/mL AF488-labeled Trf, or 250 μg/mL AF647-labeled dextran 10 kDa in serum-free medium with the addition of 2% B-27 for 10 min, washed 1× with serum free medium for microscopy, or 3×/2 min on ice with either ice-cold serum-free medium (Aβ(1-42) and dextran) or acidic buffer (0.1 M glycine-HCl buffer pH 2.5 with 150 mM NaCl; Trf)[80] and harvested for analysis by flow cytometry. […] Lastly, cells analyzed for uptake at recovery conditions were first pretreated with isotonic medium for 10 min followed by treatment in hypotonic medium for 10 min, whereupon they were exposed to the peptides and dextran in isotonic medium for 10 min.

SH-SY5Y cells [4] = assay: Cellular uptake by flow cytometry in cells transfected with EGFP-tagged Rho GTPases (Cdc42, Rac1, RhoA); details: for uptake on overexpression of DA EGFP-Cdc42 Q61L relative to nontransfected cells / uptake on overexpression of WT or DN EGFP-Cdc42 relative to nontransfected cells: ~24 h post-transfection; for uptake on overexpression of DA EGFP-Cdc42 Q61L relative to nontransfected cells: 1 μM HF647-Aβ(1-42) 1 h, 5 μg/mL AF647-Trf 5 min (N = 3, n = 4) or 125 μg/ml AF647-dextran 10 kDa 1 h (n = 4); for uptake on overexpression of WT or DN EGFP-Cdc42 relative to nontransfected cells / uptake on overexpression of all variants of EGFP-tagged RhoA (DA Q63L, WT, DN T19N) relative to nontransfected cells: 1 μM HF647-Aβ(1-42) 1 h or 5 μg/mL AF647-Trf 5 min; for uptake on overexpression of EGFP-tagged Rac1 (DA Q61L, WT, DN T17N) relative to nontransfected cells: 1 μM HF647-Aβ(1-42) 1 h (N = 3, n = 4) or 125 μg/ml AF647-dextran 10 kDa 1 h (n = 4); for uptake on overexpression of all variants of EGFP-tagged RhoA (DA Q63L, WT, DN T19N) relative to nontransfected cells: ~30 h post-transfection, N = 4, n = 4
Procedure: SH-SY5Y cells were passaged 2 days prior to transfection, grown to ∼70% confluency, and transfected with plasmids encoding for Rho GTPases (EGFP-tagged DA, WT, and DN variants of Cdc42, Rac1, and RhoA; see the above section Reagents) by electroporation using a Neon Transfection System (Invitrogen, Carlsbad, CA), following the protocol provided by the manufacturer and applying a single pulse of 1 100 V with a pulse width of 50 ms. The cells were transfected using 1 μg of plasmid DNA/100 000 cells in a 10 μL Neon Tip or 10 μg of plasmid DNA/10^6 cells in a 100 μL Neon Tip and plated immediately after. Based on the initial experiments, the analysis was set to ∼24 h, ∼27 h, and ∼30 h post-transfection for Cdc42, Rac1, and RhoA, respectively, by evaluating the time it took until the cells expressed the proteins and adapted the expected morphologies.
Flow cytometry was used for quantification of cellular uptake. […] All samples were kept on ice until they were analyzed on a Guava EasyCyte 8HT (Millipore, Darmstadt, Germany) that automatically retrieves samples from a 96-well plate. In order to exclude effects due to difference in delay time, we used mixed order of analysis, loading only a few samples at a time with the remaining samples kept on ice. Only the central cell cluster on the forward/side scatter (FSC/SSC) dot plot was analyzed, and for each sample 5 000 cells from within the gate were counted. […] The mean cellular uptake or level of Rho GTPase expression was estimated as the average fluorescence intensity of all cells within the gate. The mean cellular uptake was baseline corrected by subtracting the signal recorded for untreated cells. Each cell treatment was performed in three or four technical replicates (n = 3–4) and repeated on at least two separate occasions (N ≥ 2).
Statistical analysis was performed by matched sample ANOVA using GraphPad Prism software (GraphPad, San Diego, CA) on data that had been normalized so that the uptake in nontransfected cells was 100% for the individual experiments. Matched sample ANOVA was followed by multiple comparisons with the Bonferroni posthoc test to test for differences in mean peptide uptake between nontransfected cells and uptake at the different transfection efficiencies. This means that the reported individual p-values have been adjusted for the number of comparisons that were relevant to the experiment.

| Compound | effect of macropinocytosis inhibitor on the uptake of Aβ(1-40) and Aβ(1-42) (SH-SY5Y cells [1]) | internalization in presence of inhibitors of actin polymerization (SH-SY5Y cells [1]) | cellular uptake during the recovery phase relative to uptake in isotonic media (SH-SY5Y cells [2]) | effect of hypertonic media on uptake (SH-SY5Y cells [2]) | internalization during hypotonic conditions (SH-SY5Y cells [3]) | internalization during recovery (re-exposure to isotonic conditions) (SH-SY5Y cells [3]) | internalization under isotonic conditions (SH-SY5Y cells [3]) | uptake on overexpression of DA EGFP-Cdc42 Q61L relative to nontransfected cells (SH-SY5Y cells [4]) | uptake on overexpression of WT or DN EGFP-Cdc42 relative to nontransfected cells (SH-SY5Y cells [4]; N = 3, n = 4) | uptake on overexpression of EGFP-tagged Rac1 (DA Q61L, WT, DN T17N) relative to nontransfected cells (SH-SY5Y cells [4]; ~27 h post-transfection) | uptake on overexpression of all variants of EGFP-tagged RhoA (DA Q63L, WT, DN T19N) relative to nontransfected cells (SH-SY5Y cells [4]) | other results |
| --- | --- | --- | --- | --- | --- | --- | --- | --- | --- | --- | --- | --- |
| Oc1ccc2ccccc2c1SSc1c(O)ccc2ccccc12 [IPA-3] | reductions | – | – | – | – | – | – | – | – | – | – | – |
| COC[C@H]1OC(=O)c2coc3c2[C@@]1(C)C1=C(C3=O)[C@@H]2CCC(=O)[C@@]2(C)C[C@H]1OC(C)=O [wortmannin] | reductions | – | – | – | – | – | – | – | – | – | – | – |
| Aβ(1-40): Amyloid-β isoform; uptake results quoted from the authors' earlier work | – | reduced | – | – | – | – | – | – | – | – | – | – |
| Aβ(1-42): Synthetic Aβ(1-42) peptide, conjugated to the HiLyte Fluor HF488 or HF647 at the N-terminus, from Anaspec; applied in highly monomeric form | – | reduced | doubles | did not increase | little or no internalization | resumed to internalize | formation of small endosomal vesicles containing Aβ(1-42) was observed | reduced | no effect | None of the Rac1 variants had any effect | reduced | internalization by NIH-3T3 fibroblasts compared with CHO and SH-SY5Y (SH-SY5Y cells [1]): more |
| Trf: AlexaFluor488- and AlexaFluor647-labeled Transferrin, ligand of clathrin-mediated endocytosis | – | not | – | – | blocked | remained low | – | reduced | no effect | – | reduced | uptake in cells with the highest concentration of WT and DN Rac1 (SH-SY5Y cells [4]; ~27 h post-transfection, 5 μg/mL AF488-labeled Trf 5 min, high gate, N = 3, n = 4): reduction; uptake in cells with medium expression level of DA Rac1 versus control (SH-SY5Y cells [4]; ~27 h post-transfection, 5 μg/mL AF488-labeled Trf 5 min, medium gate, N = 3, n = 4): slightly more |
| dextran | – | – | ~8 times | did not increase | little or no internalization | induced | low | unaffected | – | did not alter | – | reduction of uptake in cells expressing DA RhoA (SH-SY5Y cells [4]; ~30 h post-transfection with RhoA Q63L, 125 μg/ml AF647-labelled dextran 10 kDa 1 h, n = 4): up to 50% |
